What all share (experiment): EMSA
On the technique in general: In EMSA bound probe runs differently from free probe, usually more slowly.

For data set [1], the target named is F1 (human, UniProt Q9BXW9 1-588).
Data set [2] deals with F3 (human, UniProt Q9BXW9 841-1178).
The target of data set [3] is T1, FANCD2 WT full-length (human, UniProt Q9BXW9 1-1451).
Data set [4] addresses T2, F1Mut5aa (K-A) (human, UniProt Q9BXW9 1-588, S29A;K30A;K31A;T32A;K34A).
Data set [5] addresses T3, F4 (human, UniProt Q9BXW9 1179-1451).
The target of data set [6] is T4, F3Mut1aa (human, UniProt Q9BXW9 841-1178, K865A).
Data set [7] addresses T5, F2 (human, UniProt Q9BXW9 589-840).
In data set [8] the target is T1, FANCD2 WT full-length. The source holds these as a separate data set.
Data set [9] addresses T2, F1Mut5aa (K-A). This is another data set of the same source.
Data set [10] deals with T3, F4. The source holds these as a separate data set.
Data set [11] addresses T4, F3Mut1aa. This is another data set of the same source.
The target of data set [12] is T5, F2. This is another data set of the same source.

Like-named read-outs stand apart in the source and are kept apart here.

T5 sequence (Q9BXW9 589-840): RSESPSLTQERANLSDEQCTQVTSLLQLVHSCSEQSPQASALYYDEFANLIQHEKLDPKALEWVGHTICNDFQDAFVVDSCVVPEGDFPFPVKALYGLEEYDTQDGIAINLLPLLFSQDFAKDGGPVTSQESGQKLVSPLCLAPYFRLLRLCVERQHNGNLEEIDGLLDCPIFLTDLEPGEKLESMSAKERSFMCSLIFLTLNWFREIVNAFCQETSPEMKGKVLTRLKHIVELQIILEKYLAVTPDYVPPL
T1 sequence (Q9BXW9 whole entry): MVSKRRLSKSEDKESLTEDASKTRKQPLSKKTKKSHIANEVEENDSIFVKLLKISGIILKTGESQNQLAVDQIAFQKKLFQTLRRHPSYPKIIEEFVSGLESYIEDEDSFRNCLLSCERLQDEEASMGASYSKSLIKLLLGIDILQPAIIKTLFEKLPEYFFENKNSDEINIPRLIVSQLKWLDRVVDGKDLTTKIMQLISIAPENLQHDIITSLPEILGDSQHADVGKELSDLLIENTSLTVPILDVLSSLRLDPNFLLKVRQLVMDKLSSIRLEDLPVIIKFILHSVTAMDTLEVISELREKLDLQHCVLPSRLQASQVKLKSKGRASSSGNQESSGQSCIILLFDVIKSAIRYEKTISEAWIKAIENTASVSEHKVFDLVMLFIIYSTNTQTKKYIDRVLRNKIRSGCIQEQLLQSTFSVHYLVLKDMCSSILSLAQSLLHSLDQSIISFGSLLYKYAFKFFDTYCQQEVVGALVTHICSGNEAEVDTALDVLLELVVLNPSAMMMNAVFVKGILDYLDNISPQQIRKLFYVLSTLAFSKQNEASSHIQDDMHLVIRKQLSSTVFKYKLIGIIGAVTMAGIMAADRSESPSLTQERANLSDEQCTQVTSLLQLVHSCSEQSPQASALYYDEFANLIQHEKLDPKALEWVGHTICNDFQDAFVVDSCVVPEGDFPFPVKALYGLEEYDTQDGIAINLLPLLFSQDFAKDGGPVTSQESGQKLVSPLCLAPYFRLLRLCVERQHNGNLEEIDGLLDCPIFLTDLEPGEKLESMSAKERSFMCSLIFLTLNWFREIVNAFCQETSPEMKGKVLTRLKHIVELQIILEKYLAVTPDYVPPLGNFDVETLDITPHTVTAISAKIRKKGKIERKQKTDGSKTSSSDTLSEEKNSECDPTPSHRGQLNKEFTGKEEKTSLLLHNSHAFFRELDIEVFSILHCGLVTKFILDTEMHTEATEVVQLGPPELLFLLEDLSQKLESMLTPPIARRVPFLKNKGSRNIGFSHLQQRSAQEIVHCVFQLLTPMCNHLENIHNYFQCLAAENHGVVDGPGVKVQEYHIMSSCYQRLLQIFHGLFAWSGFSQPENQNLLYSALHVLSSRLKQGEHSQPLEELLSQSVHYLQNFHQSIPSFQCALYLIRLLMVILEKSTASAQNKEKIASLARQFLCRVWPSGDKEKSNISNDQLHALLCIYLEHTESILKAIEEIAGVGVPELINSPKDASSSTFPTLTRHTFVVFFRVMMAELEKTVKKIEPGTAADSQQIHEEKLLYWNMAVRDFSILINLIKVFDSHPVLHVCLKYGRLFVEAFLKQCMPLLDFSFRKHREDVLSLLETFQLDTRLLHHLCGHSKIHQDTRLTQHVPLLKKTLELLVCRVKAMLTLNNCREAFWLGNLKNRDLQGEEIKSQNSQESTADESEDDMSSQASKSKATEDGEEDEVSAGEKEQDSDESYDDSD
T3 sequence (Q9BXW9 1179-1451): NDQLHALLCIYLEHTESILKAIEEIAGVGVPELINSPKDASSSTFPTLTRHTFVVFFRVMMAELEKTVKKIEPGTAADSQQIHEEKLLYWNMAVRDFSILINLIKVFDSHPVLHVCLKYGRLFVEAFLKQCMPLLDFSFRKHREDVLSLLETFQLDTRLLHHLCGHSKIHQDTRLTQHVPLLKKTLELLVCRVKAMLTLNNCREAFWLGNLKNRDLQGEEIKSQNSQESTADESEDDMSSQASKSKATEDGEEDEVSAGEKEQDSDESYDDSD
T4 sequence (Q9BXW9 841-1178 K865A): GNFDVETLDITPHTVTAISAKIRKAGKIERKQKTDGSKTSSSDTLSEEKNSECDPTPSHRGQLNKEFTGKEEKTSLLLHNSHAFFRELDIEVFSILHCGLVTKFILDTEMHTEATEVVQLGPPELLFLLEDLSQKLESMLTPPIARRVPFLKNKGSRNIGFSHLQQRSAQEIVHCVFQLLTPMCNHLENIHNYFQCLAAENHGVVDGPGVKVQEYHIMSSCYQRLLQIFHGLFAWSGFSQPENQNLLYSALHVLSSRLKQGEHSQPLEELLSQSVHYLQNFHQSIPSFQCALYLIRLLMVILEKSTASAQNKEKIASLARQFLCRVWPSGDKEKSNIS
T2 sequence (Q9BXW9 1-588 S29A/K30A/K31A/T32A/K34A): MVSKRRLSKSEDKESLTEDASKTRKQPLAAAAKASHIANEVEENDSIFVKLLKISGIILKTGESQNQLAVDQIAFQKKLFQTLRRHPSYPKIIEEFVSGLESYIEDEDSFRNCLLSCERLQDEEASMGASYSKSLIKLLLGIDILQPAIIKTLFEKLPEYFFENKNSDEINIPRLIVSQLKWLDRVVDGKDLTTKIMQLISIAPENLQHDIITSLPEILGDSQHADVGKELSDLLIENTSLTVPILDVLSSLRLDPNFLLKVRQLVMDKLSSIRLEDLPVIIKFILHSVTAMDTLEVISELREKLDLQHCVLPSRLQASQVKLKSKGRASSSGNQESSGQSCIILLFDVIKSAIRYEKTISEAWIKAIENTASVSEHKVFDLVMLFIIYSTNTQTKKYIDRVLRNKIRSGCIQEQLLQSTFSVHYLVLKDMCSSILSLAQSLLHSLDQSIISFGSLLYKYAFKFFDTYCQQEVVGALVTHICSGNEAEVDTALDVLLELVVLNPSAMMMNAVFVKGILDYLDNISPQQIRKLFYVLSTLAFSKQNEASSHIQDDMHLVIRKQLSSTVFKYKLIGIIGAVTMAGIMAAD
Chain of F1 (Q9BXW9 1-588): as the sequence (Q9BXW9 1-588 S29A/K30A/K31A/T32A/K34A) above, with A29S, A30K, A31K, A32T, A34K counted along it
Chain of F3 (Q9BXW9 841-1178): as the sequence (Q9BXW9 841-1178 K865A) above, with A25K counted along it

B1: ssDNA (SS) (ssDNA)
DNA: GGGTGAACCTGCAGGTGGGCAAAGATGTCCTAGCAATGTAATCGTCAAGCTTTATGCCGT
On to B1, for which the binding result in data set [1] is “binds”; in data set [2] it was “binds”; in data set [3], “binds”; in data set [4], “no binding”; in data set [5], “no binding”; in [6], “no binding”. Further, the binding result in data set [7] is reported as “no binding”.

B2: Holliday junction (HJ) (structured_DNA)
DNA 1: B1 DNA
DNA 2: ACGCTGCCGAATTCTACCAGTGCCAGCGACGGACATCTTTGCCCACCTGCAGGTTCACCC
DNA 3: ACGGCATAAAGCTTGACGATTACATTGCTACATGGAGCTGTCTAGAGGATCCGACTATCG
DNA 4: CGATAGTCGGATCCTCTAGACAGCTCCATGGTCGCTGGCACTGGTAGAATTCGGCAGCGT
In the case of B2, the binding result in data set [8] is listed as “binds”; in data set [9], “no binding”; in data set [10] it was “no binding”; in data set [11] it was “no binding”; in data set [12] it was “no binding”.

Values taken from article PMC5737651.
